T1: rabbit-lung angiotensin converting enzyme (ACE) (Sigma) (rabbit, UniProt P12822 34-1310, limits assumed)
T1 sequence (looked up): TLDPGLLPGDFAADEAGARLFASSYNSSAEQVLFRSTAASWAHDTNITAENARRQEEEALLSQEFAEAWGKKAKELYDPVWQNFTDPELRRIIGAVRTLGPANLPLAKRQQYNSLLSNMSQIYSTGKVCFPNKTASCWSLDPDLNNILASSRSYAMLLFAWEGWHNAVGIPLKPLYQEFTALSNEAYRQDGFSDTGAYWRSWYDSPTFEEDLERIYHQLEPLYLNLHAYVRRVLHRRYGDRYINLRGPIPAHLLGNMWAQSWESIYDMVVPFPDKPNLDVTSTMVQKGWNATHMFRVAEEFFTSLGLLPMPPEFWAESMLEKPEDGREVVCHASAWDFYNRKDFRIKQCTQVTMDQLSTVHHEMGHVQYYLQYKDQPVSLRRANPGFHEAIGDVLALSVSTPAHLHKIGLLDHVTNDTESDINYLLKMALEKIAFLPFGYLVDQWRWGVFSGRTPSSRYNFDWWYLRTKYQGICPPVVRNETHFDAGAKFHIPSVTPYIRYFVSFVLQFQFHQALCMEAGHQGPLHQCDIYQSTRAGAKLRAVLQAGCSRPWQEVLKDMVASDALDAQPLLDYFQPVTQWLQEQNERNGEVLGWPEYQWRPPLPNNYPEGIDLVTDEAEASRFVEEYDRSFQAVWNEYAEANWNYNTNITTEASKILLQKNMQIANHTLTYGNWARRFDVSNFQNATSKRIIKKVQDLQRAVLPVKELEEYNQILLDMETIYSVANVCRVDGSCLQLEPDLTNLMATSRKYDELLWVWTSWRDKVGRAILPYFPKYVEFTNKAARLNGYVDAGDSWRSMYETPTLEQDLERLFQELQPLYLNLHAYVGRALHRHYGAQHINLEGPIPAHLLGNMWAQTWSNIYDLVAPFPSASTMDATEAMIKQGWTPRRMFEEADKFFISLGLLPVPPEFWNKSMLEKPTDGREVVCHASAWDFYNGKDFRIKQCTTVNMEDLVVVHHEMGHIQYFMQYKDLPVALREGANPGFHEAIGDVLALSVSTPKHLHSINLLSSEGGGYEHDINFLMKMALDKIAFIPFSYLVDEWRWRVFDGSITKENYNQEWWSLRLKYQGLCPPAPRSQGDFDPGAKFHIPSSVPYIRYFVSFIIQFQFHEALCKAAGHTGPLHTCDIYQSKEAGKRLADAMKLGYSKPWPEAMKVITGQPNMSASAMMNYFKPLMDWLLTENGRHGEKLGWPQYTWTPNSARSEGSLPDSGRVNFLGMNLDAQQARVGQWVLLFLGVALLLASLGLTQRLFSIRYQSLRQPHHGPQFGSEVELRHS


Target: T1, rabbit-lung angiotensin converting …
Test: cell-based or functional assay

Binder | ACE inhibitory activity, IC50 [µM]
YYCPADCPS [SEQ ID NO: 2 peptide YYCPADCPS] | 1.64
CCGNAVPQ [SEQ ID NO: 7 peptide CCGNAVPQ] | 39.6
YGCGCDPL [SEQ ID NO: 3 peptide YGCGCDPL] | 1.85
LEEFCC [SEQ ID NO: 4 peptide LEEFCC] | 2.58
HCGCNTH [SEQ ID NO: 5 peptide HCGCNTH] | 2.59
WAAGYCC [SEQ ID NO: 6 peptide WAAGYCC] | 6.88
RDGGYCC [SEQ ID NO: 1 peptide RDGGYCC] | 0.84
